B1: Protein SLM4 (Saccharomyces cerevisiae), P38247 (parent)
chain: MVMLHSKNVKGFLENTLKPYDLHSVDFKTSSLQSSMIITATNGGILSYATSNNDVPKNSINEINSVNNLKMMSLLIKDKWSEDENDTEEQHSNSCYPVEIDSFKTKIYTYEMEDLHTCVAQIPNSDLLLLFIAEGSFPYGLLVIKIERAMRELTDLFGYKLG
partner: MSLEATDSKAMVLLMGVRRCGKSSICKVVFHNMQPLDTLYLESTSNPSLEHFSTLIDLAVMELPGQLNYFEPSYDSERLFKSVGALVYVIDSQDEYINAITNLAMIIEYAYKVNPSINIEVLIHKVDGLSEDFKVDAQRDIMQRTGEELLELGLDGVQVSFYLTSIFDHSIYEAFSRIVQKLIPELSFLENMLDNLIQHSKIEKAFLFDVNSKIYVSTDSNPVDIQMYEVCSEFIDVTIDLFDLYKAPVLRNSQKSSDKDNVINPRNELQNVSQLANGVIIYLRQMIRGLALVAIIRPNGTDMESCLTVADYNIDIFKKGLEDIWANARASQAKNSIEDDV
B2: Protein SLM4 (Saccharomyces cerevisiae), P38247 (parent)
chain: B1 chain
partner: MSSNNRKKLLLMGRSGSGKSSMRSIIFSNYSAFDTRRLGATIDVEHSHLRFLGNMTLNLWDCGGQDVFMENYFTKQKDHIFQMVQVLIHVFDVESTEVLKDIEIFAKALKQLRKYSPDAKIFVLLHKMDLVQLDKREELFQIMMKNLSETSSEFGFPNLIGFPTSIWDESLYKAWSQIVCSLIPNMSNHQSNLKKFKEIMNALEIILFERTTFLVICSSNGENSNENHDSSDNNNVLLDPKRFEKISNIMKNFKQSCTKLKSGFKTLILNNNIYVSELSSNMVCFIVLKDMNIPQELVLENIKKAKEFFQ

Variants of: B1
Conditions: with ragcd_yeast GTR2, P53290

effect of a mutation on the interaction | Variant
decreasing interaction strength | N67A;N68A;K70A;M71A

Variants of: B2
Conditions: with ragab_yeast GTR1, Q00582

effect of a mutation on the interaction | Variant
decreasing interaction strength | N67A;N68A;K70A;M71A
